B1: Casein kinase I isoform alpha (Oryctolagus cuniculus (Rabbit)), P67828 (parent)
chain: MASSSGSKAEFIVGGKYKLVRKIGSGSFGDIYLAINITNGEEVAVKLESQKARHPQLLYESKLYKILQGGVGIPHIRWYGQEKDYNVLVMDLLGPSLEDLFNFCSRRFTMKTVLMLADQMISRIEYVHTKNFIHRDIKPDNFLMGIGRHCNKLFLIDFGLAKKYRDNRTRQHIPYREDKNLTGTARYASINAHLGIEQSRRDDMESLGYVLMYFNRTSLPWQGLKAATKKQKYEKISEKKMSTPVEVLCKGFPAEFAMYLNYCRGLRFEEAPDYMYLRQLFRILFRTLNHQYDYTFDWTMLKQKAAQQAASSSGQGQQAQTPTGF
partner: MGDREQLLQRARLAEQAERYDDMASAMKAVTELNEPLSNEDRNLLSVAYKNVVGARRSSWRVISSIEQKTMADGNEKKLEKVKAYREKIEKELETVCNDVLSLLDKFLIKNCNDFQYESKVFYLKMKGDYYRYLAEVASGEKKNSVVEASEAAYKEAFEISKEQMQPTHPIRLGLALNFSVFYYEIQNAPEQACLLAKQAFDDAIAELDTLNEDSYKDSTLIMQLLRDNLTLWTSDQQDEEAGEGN

Variants of: B1
Settings: with 1433f_human YWHAH

Row | Variant | effect of a mutation on the interaction
1 | MASSSGSKAEFIVGGKYKLVRKIGSGSFGDIYLAINITNGEEVAVKLESQKARHPQLLYESKLYKILQGGVGIPHIRWYGQEKDYNVLVMDLLGPSLEDLFNFCSRRFTMKTVLMLADQMISRIEYVHTKNFIHRDIKPDNFLMGIGRHCNKLFLIDFGLAKKYRDNRTRQHIPYREDKNLTGTARYASINAHLGIEQSRRDDMESLGYVLMYFNRTALPWQGLKAATKKQKYEKISEKKMSTPVEVLCKGFPAEFAMYLNYCRGLRFEEAPDYMYLRQLFRILFRTLNHQYDYTFDWTMLKQKAAQQAASSSGQGQQAQTPTGF [S218A] | decreasing interaction

Variants of: B1
Settings: with 1433f_human YWHAH
Remark: another data set of the same source

Row | Variant | effect of a mutation on the interaction
2 | MASSSGSKAEFIVGGKYKLVRKIGSGSFGDIYLAINITNGEEVAVKLESQKARHPQLLYESKLYKILQGGVGIPHIRWYGQEKDYNVLVMDLLGPSLEDLFNFCSRRFTMKTVLMLADQMISRIEYVHTKNFIHRDIKPDNFLMGIGRHCNKLFLIDFGLAKKYRDNRTRQHIPYREDKNLTGTARYASINAHLGIEQSRRDDMESLGYVLMYFNRTALPWQGLKAATKKQKYEKISEKKMSTPVEVLCKGFPAEFAMYLNYCRGLRFEEAPDYMYLRQLFRILFRTLNHQYDYTFDWTMLKQKAAQQAASSSGQGQQAQTPTGF [S218A] | disrupting interaction
3 | MASSSGSKAEFIVGGKYKLVRKIGSGSFGDIYLAINITNGEEVAVKLESQKARHPQLLYESKLYKILQGGVGIPHIRWYGQEKDYNVLVMDLLGPSLEDLFNFCSRRFTMKTVLMLADQMISRIEYVHTKNFIHRDIKPDNFLMGIGRHCNKLFLIDFGLAKKYRDNRTRQHIPYREDKNLTGTARYASINAHLGIEQSRRDDMESLGYVLMYFNRTSLPWQGLKAATKKQKYEKISEKKMATPVEVLCKGFPAEFAMYLNYCRGLRFEEAPDYMYLRQLFRILFRTLNHQYDYTFDWTMLKQKAAQQAASSSGQGQQAQTPTGF [S242A] | disrupting interaction

From IntAct's records for PubMed 19860830
